Series [1] deals with T1, eEF1A1 (Homo sapiens (HeLa S-100)) (UniProt P68104).
T1 sequence: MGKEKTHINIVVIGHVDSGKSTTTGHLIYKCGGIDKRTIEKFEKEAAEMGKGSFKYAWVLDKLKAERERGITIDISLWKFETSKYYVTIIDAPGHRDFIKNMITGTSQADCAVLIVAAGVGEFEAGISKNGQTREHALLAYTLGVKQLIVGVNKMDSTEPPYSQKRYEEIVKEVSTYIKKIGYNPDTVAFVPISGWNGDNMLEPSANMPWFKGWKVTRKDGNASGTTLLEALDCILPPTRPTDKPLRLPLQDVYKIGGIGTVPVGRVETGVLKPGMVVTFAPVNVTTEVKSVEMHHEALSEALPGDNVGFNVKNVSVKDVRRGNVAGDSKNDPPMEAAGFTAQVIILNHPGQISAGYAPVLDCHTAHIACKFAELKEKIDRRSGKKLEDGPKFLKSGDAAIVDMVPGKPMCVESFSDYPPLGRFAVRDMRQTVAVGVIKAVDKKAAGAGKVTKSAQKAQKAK
Briefly: EMSA. To be noted: RNA EMSA: purified eEF1A1 with 20 kcpm RNA (~0.1 pmol/ul), 50 uM GTP, 30 min, room temperature; protein stock in 50 mM Tris-HCl pH 7.5, 100 mM KCl, 0.5 mM …. (A gel shift assay detects complexes by their altered migration in electrophoresis.)

A further series has as its target eEF1A1 (Homo sapiens (HeLa S-100), UniProt P68104 1-462). Briefly: EMSA; relatively weak; reviewer notes no saturation, >300 nM; RNA EMSA: purified eEF1A1 with 20 kcpm RNA (~0.1 pmol/ul), 50 uM GTP, 30 min, room temperature; protein stock in 50 mM Tris-HCl pH 7.5, 100 mM KCl, 0.5 mM EDTA, 2 mM DTT, 10% glycerol; binding buffer per cited protocols (Yan 2008, Shamovsky 2006). The conditions noted are these: protein: native; tags: none; (radiolabeled); blunt.

The text below walks through data of PMC4164936, “The translation elongation factor eEF1A1 couples transcription to translation during heat shock response”.

The molecule HSP70 3'UTR showed a Kd in series [1] of 100 nM.
For the molecule “GGGGGGCCUUUCCAAGAUUGCUGUUUUUGUUUUGGAGCUUCAAGACUUUGCAUUUCCUAGUAUUUCUGUUUGUCAGUUCUCAAUUUCCUGUGUUUGCAAUGUUGAAAUUUUUUGGUGAAGUACUGAACUUGCUUUUUUUCCGGUUUCUACAUGCAGAGAUGAAUUUAUACUGCCAUCUUACGACUAUUUCUUCUUUUUAAUACACUUAACUCAGGCCAUUUUUUAAGUUGGUUACUUCAAAGUAAAUAAACUUUAAAAUUCAA [HSP70 3'UTR]”, in series [1], the Kd worked out at 100 nM and the binding entry is reported as “binds”.

B1: HSPA1A -141/-91 promoter (dsDNA)
DNA 1: GGAAGGCTGGGGGGCAGGACGGGAGGCGAAAACCCTGGAATATTCCCGACC
DNA 2: GGTCGGGAATATTCCAGGGTTTTCGCCTCCCGTCCTGCCCCCCAGCCTTCC
B1: in the series with eEF1A1, the binding result is “binds”.

Usually Kd stands for the concentration at which binding is half-saturated. Read a high Kd as a looser complex.
